In US20260234655A1, “Nuclear Targeted DNA Delivery and Compositions for Use in Practicing the Same” (Seawolf Therapeutics, Inc., priority 2022, published 2026):

B1: DTS with 10 repeats of UAS: DNA with GFP cassette and DTS of 10 UAS repeats (nucleic acid)
DNA: CGGAGGACTGTCCTCCGTGAGTCCTAGCGGAGGACTGTCCTCCGTCTTCACAGGCGGAGGACTGTCCTCCGTAGGGTTCCTCGGAGGACTGTCCTCCGACACTAGAGTCGGAGGACTGTCCTCCGGATAGTATCACGGAGGACTGTCCTCCGAATGGACTAACGGAGGACTGTCCTCCGAGCAAACGAACGGAGGACTGTCCTCCGTACACCGATCCGGAGGACTGTCCTCCGGCGCTCGGCACGGAGGACTGTCCTCCG
B2: DTS with 4 repeats of UAS: DNA with GFP cassette and DTS of 4 UAS repeats (nucleic acid)
DNA: CGGAGGACTGTCCTCCGTGAGTCCTAGCGGAGGACTGTCCTCCGTCTTCACAGGCGGAGGACTGTCCTCCGTAGGGTTCCTCGGAGGACTGTCCTCCG
modifications: DNA nuclear targeting sequence within DNA carrying a GFP cassette, further chemistry not given here
notes: DNA with GFP cassette and DTS of 4 UAS repeats
B3: DTS with 3 repeats of UAS: DNA with GFP cassette and DTS of 3 UAS repeats (nucleic acid)
DNA: CGGAGGACTGTCCTCCGTGAGTCCTAGCGGAGGACTGTCCTCCGTCTTCACAGGCGGAGGACTGTCCTCCG
modifications: DNA nuclear targeting sequence within DNA carrying a GFP cassette, further chemistry not given here
notes: DNA with GFP cassette and DTS of 3 UAS repeats
B4: DTS with 7 repeats of UAS: DNA with GFP cassette and DTS of 7 UAS repeats (nucleic acid)
DNA: CGGAGGACTGTCCTCCGTGAGTCCTAGCGGAGGACTGTCCTCCGTCTTCACAGGCGGAGGACTGTCCTCCGTAGGGTTCCTCGGAGGACTGTCCTCCGACACTAGAGTCGGAGGACTGTCCTCCGGATAGTATCACGGAGGACTGTCCTCCGAGCAAACGAACGGAGGACTGTCCTCCG
B5: DTS with 5 repeats of UAS: DNA with GFP cassette and DTS of 5 UAS repeats (nucleic acid)
DNA: CGGAGGACTGTCCTCCGTGAGTCCTAGCGGAGGACTGTCCTCCGTCTTCACAGGCGGAGGACTGTCCTCCGTAGGGTTCCTCGGAGGACTGTCCTCCGACACTAGAGTCGGAGGACTGTCCTCCG
modifications: DNA nuclear targeting sequence within DNA carrying a GFP cassette, further chemistry not given here
notes: DNA with GFP cassette and DTS of 5 UAS repeats
B6: DTS with 5 repeats of TetO: DNA with GFP cassette and DTS of 5 TetO repeats (nucleic acid)
DNA: CTCGAGTTTACTCCCTATCAGTGATAGAGAACGTATGTCGAGTTTACTCCCTATCAGTGATAGAGAACGATGTCGAGTTTACTCCCTATCAGTGATAGAGAACGTATGTCGAGTTTACTCCCTATCAGTGATAGAGAACGTATGTCGAGTTTACTCCCTATCAGTGATAGAGAACGTATGTCGAGTTTA
B7: DTS with 6 repeats of TetO: DNA with GFP cassette and DTS of 6 TetO repeats (nucleic acid)
DNA: CTCGAGTTTACTCCCTATCAGTGATAGAGAACGTATGTCGAGTTTACTCCCTATCAGTGATAGAGAACGATGTCGAGTTTACTCCCTATCAGTGATAGAGAACGTATGTCGAGTTTACTCCCTATCAGTGATAGAGAACGTATGTCGAGTTTACTCCCTATCAGTGATAGAGAACGTATGTCGAGTTTATCCCTATCAGTGATAGAGAACGTATGTCGAGTTTAC
B8: DTS with 7 repeats of TetO: DNA with GFP cassette and DTS of 7 TetO repeats (nucleic acid)
DNA: CTCGAGTTTACTCCCTATCAGTGATAGAGAACGTATGTCGAGTTTACTCCCTATCAGTGATAGAGAACGATGTCGAGTTTACTCCCTATCAGTGATAGAGAACGTATGTCGAGTTTACTCCCTATCAGTGATAGAGAACGTATGTCGAGTTTACTCCCTATCAGTGATAGAGAACGTATGTCGAGTTTATCCCTATCAGTGATAGAGAACGTATGTCGAGTTTACTCCCTATCAGTGATAGAGAACGTATGTCGAGGTAGGCGTGTACGGTGGGAGGCCTATATAAGCAGAGCTCGTTTAGTGAACCGTCAGATCGCCTGGAGAATTCA
B9: DTS with 3 repeats of TetO: DNA with GFP cassette and DTS of 3 TetO repeats (nucleic acid)
DNA: CTCGAGTTTACTCCCTATCAGTGATAGAGAACGTATGTCGAGTTTACTCCCTATCAGTGATAGAGAACGATGTCGAGTTTACTCCCTATCAGTGATAGAGAACGTATGTCGAGTTTAC
modifications: DNA nuclear targeting sequence within DNA carrying a GFP cassette, further chemistry not given here
notes: DNA with GFP cassette and DTS of 3 TetO repeats
B10: DTS with 2 repeats of TetO: DNA with GFP cassette and DTS of 2 TetO repeats (nucleic acid)
DNA: CTCGAGTTTACTCCCTATCAGTGATAGAGAACGTATGTCGAGTTTACTCCCTATCAGTGATAGAGAACGATGTCGAGTTTAC
modifications: DNA nuclear targeting sequence within DNA carrying a GFP cassette, further chemistry not given here
notes: DNA with GFP cassette and DTS of 2 TetO repeats
B11: DTS with 4 repeats of TetO: DNA with GFP cassette and DTS of 4 TetO repeats (nucleic acid)
DNA: CTCGAGTTTACTCCCTATCAGTGATAGAGAACGTATGTCGAGTTTACTCCCTATCAGTGATAGAGAACGATGTCGAGTTTACTCCCTATCAGTGATAGAGAACGTATGTCGAGTTTACTCCCTATCAGTGATAGAGAACGTATGTCGAGTTTAC

The molecules below were run on growth-arrested HepG2 cells (assay: Number of TFBS repeats in the DTS (TetO, UAS), co-transfection with TetR or Gal4 mRNA in growth-arrested HepG2 cells; GFP intensity). Conditions: growth-arrested HepG2 cells, 12 h.
Assay type: cell-based
Description: Co-transfection of DNA and mRNA into HepG2 cells. HepG2 cells were purchased from ATCC and grown in complete media (EMEM+10% fetal bovine serum, ATCC). For co-transfection experiments, cells were seeded at confluence onto collagen coated 384-well plates and cultured for 48 hours in complete media followed by 48 hours in complete media supplemented with […] aphidicolin to prevent cell division. After the outgrowth period, cells were transfected using Lipofectamine3000 (Invitrogen) transfection reagent according to the manufacturer's instructions. RNA and DNA were independently complexed with Lipofectamine3000 in Opti-MEM I (Gibco) for 15 minutes. RNA and DNA complexes were then mixed, followed by 1:10 dilution into complete media supplemented with 0.75 μM aphidicolin. Media was aspirated from the plated HepG2 cells and replaced with the transfection mix. DNA was transfected from 17.5 ng to 4.38 ng per well. mRNA was transfected from 70 ng to 0.07 ng per well. Cells were live-imaged using a 4× objective with a GFP filter set and brightfield at 3-hour intervals for 72 hours using a Cytation5 automated microscope (Agilent) attached to a BioSpa8 automated incubator (Agilent). Gen5IPrime (Agilent) image analysis software was used to quantify the number of GFP cells and GFP Intensity per well.
In this study, DNAs were engineered to comprise DTSs having different numbers of TFBS repeats for TetR or Gal4, and the impact of multiple sequences assessed in vitro by co-transfection of mRNA encoding TetR or Gal4 NTF. Growth-arrested HepG2 cells were co-transfected with mRNA encoding the NTF protein along with DNA comprising a cognate DTS and a GFP expression cassette. Each NTF mRNA was paired with a cognate DNA in the co-transfection, where the cognate DNA comprised a DTS with varying numbers of cognate TFBS repeats. For example, the TetR mRNA was paired with DNAs comprising DTSs with 2, 3, 4, 5, 6, or 7 repeats of a TetR TFBS (e.g., TetO). Twenty-four hours after transfection, GFP expression was assessed by measuring GFP fluorescence intensity.
The increase in gene expression appeared to increase with the number of TetO repeats in the DTS, with 7 repeats producing an increase in GFP expression greater than 10-fold at the highest amount of RNA (e.g., 17.5 ng RNA) compared to DNA alone (FIG. 16A).
The Gal4 mRNA was paired with DNAs comprising DTSs with 1, 2, 3, 4, 5, 7, or 10 repeats of a Gal4 TFBS (e.g., UAS). Twelve hours after transfection, GFP expression was assessed by measuring GFP fluorescence intensity. […] The increase in gene expression appeared to increase with the number of UAS repeats in the DTS up to 5 repeats, while the increase in gene expression appeared saturable as 5, 7, and 10 repeats performed similarly (FIG. 16B). Co-transfection of Gal4 mRNA and DNA comprising a DTS of 5, 7, or 10 repeats produced an increase in GFP expression greater than 10-fold at the highest amount of RNA (e.g., 17.5 ng RNA) compared to DNA alone (e.g., 0 ng RNA) in HepG2 cells (FIG. 16B).
In the case of “DTS with 2 repeats of UAS: DNA with GFP cassette and DTS of 2 UAS repeats (DNA CGGAGGACTGTCCTCCGTGAGTCCTAGCGGAGGACTGTCCTCCG; DNA nuclear targeting sequence within DNA carrying a GFP cassette, further chemistry not given here)”, the “gene expression over DNA alone on co-transfection with Gal4 mRNA” value is reported as “did not substantially increase gene expression”. “DTS with 1 repeat of UAS: DNA with GFP cassette and DTS of 1 UAS (Gal4 TFBS) (DNA ACACTAGAGTCGGAGGACTGTCCTCCGTGAGTCCTAG; DNA nuclear targeting sequence within DNA carrying a GFP cassette, further chemistry not given here)” was tested, and the “gene expression over DNA alone on co-transfection with Gal4 mRNA” value was “did not substantially increase gene expression”. B1 was tested, and the “gene expression over DNA alone on co-transfection with Gal4 mRNA” value was “did substantially increase gene expression”. B2 was tested, and the “gene expression over DNA alone on co-transfection with Gal4 mRNA” value was “did substantially increase gene expression”. For B3, the “gene expression over DNA alone on co-transfection with Gal4 mRNA” value was “did substantially increase gene expression”. In the case of B4, the “gene expression over DNA alone on co-transfection with Gal4 mRNA” value is reported as “did substantially increase gene expression”. B5 was tested, and the “gene expression over DNA alone on co-transfection with Gal4 mRNA” value was “did substantially increase gene expression”.

Same assay, conditions: growth-arrested HepG2 cells, 24 h
In the case of B6, the “gene expression over DNA alone on co-transfection with TetR mRNA” value is reported as “did substantially increase gene expression”. In the case of B7, the “gene expression over DNA alone on co-transfection with TetR mRNA” value is reported as “did substantially increase gene expression”. With B8 the “gene expression over DNA alone on co-transfection with TetR mRNA” value was “did substantially increase gene expression”. For B9, the “gene expression over DNA alone on co-transfection with TetR mRNA” value was “did substantially increase gene expression”. In the case of B10, the “gene expression over DNA alone on co-transfection with TetR mRNA” value is reported as “did not substantially increase gene expression”. In the case of B11, the “gene expression over DNA alone on co-transfection with TetR mRNA” value is reported as “did substantially increase gene expression”.

Same assay, conditions: highest amount of RNA (17.5 ng RNA), 24 h
B8 was tested, and the “increase in GFP expression compared to DNA alone on co-transfection with TetR mRNA” value was “greater than 10 fold”.
